Key:
[1] = target: T1, OX40 expressed on cells (OX40-293F细胞; 19B3 HEK293 NF-κB报告细胞系) (UniProt P43489 29-277); experiment: cell-based or functional assay
T1 sequence (looked up): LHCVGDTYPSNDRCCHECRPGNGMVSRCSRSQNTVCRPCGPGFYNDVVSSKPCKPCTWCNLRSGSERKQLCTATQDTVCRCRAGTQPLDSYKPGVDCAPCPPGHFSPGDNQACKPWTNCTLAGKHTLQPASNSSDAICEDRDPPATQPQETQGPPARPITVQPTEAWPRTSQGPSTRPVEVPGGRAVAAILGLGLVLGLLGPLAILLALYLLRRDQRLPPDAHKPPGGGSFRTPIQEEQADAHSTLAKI

[2] = target: T2, 4-1BB-rFc融合蛋白 (UniProt Q07011 24-186); experiment: ELISA, fusion protein coated on the plate
T2 construct: extracellular domain; also called 4-1BB融合蛋白; not shown: rFc part

[3] = target: T3, 4-1BB-His融合蛋白 (UniProt Q07011 24-186); experiment: ELISA, fusion protein coated on the plate
T3 construct: extracellular domain; also called 4-1BB融合蛋白; not shown: His tag

B1: 本发明抗OX40抗体 (murine monoclonal anti-OX40 antibody of the invention) (antibody, V domains shown)
VH: EVQLQQSGAELVKPGASVKLSCKASGYTFTNYWIHWVKQRPGQGLEWIGEINPSNGRTNSNEKFKNKATLTVDKSSSTAYMQLSSLTSEDSAVYYCAEAVPYYFVYWGQGTTLTVSS
VL: DIVMTQAASSLSASLGDRVTISCRASQDINNYLNWYQQKPDGTVKLLIYFTSGLRSGVPSRFSGSGSGTDYSLTISNLEQEDIATYFCQQGNTLPLTFGAGTKLELN
notes: also called 本发明OX40抗体; 靶向OX40的抗体
NF-κB luciferase reporter (RLU) in 19B3 cells expressing OX40; 半数有效浓度(EC50) [1]: 0.803 µg/mL | binding result [2]: no binding | binding result [3]: no binding
